# B1: CPEB3 Ribozyme (parent)
# chain: GGGGGCCACAGCAGAAGCGUUCACGUCGCGGCCCCUGUCAGAUUCUGGUGAAUCUGCGAAUUCUGCUGU
# Variants of: B1
# Test: self-cleavage, relative activity (ratio to wild type); higher = more cleavage; co-transcriptional
row,Variant,self-cleavage
1,G3C U69C,0.495
2,G3C U69G,0.222
3,G3A C57U,0.0942
4,G3A C57A,0.11
5,G3A C57G,0.175
6,G3A G4A,0.204
7,G3A G4C,0.165
8,G3A G4U,0.0692
9,G3C G5U,0.00743
10,G3C G5A,0.0417
11,G3A U44G,0.331
12,G3A U44C,0.474
13,G3A U44A,0.54
14,G3A G11C,0.33
15,G3A G11A,0.48
16,G3A G11U,0.402
17,G2U U46A,0.0474
18,G2U U46C,0.0853
19,G2U G28A,0.0437
20,G2U G28C,0.0331
21,G3A C39U,0.273
22,G3A C39A,0.328
23,G2U U43G,0.0816
24,G2U U43C,0.0688

row,Variant,self-cleavage
1,G2U U43A,0.118
2,G3A A59U,0.198
3,G3A A59G,0.362
4,G3C C29G,0.0545
5,G3C C24G,0.0519
6,G3C C24U,0.0425
7,G3A G17U,0.0783
8,G3A G17A,0.0767
9,G3A G17C,0.0537
10,G3C C66A,0.0406
11,G3C C66G,0.0391
12,G3A C32A,0.191
13,G3A C32U,0.302
14,G3A C32G,0.176
15,G3A U53G,0.284
16,G3A U53C,0.416
17,G3C A40G,0
18,G3C A40C,0.0512
19,G3C A40U,0.016
20,G3A C35U,0.215
21,G3A C35G,0.0971
22,G2U U38G,0.0441
23,G3A G48U,0.722
24,G3A G48A,0.69

row,Variant,self-cleavage
1,G2U U55A,0.0595
2,G3C C57A,0.0768
3,G3C C57G,0.0873
4,G3C C57U,0.015
5,G3A C7U,0.298
6,G3C U64A,0.0618
7,G3C U64C,0.0655
8,G3A C24U,0.188
9,G3A C24G,0.0795
10,G3A C24A,0.153
11,G3C G41A,0.0418
12,G3C G41U,0.0159
13,G3A G5A,0.101
14,G3A G5U,0.0857
15,G3C U46C,0.126
16,G3C U46A,0.113
17,G3A G14C,0.159
18,G3A G41U,0.277
19,G3A G41A,0.222
20,G3C C54G,0.0518
21,G3C G31C,0.0554
22,G2U U36A,0.023
23,G2U U36C,0.0828
24,G3A A42C,0.338

row,Variant,self-cleavage
1,G3A A42U,0.394
2,G3A A42G,0.584
3,G3C A15C,0.0371
4,G3C A15G,0.113
5,G2U G31U,0.0654
6,G2U G31C,0.061
7,G3C A60C,0.0624
8,G3C A60G,0.0121
9,G3A C22A,0.0741
10,G3A C22G,0.0453
11,G3A A40G,0.455
12,G3A A15G,0.635
13,G3A A15U,0.337
14,G3A A15C,0.308
15,G3A C45U,0.634
16,G3A A8U,0.697
17,G3C C63A,0.0751
18,G2U G48U,0.0675
19,G2U G48A,0.0985
20,G3A G30A,0.181
21,G3A G30C,0.103
22,G3A A52G,0.563
23,G3A A52U,0.556
24,G3C G30A,0.0737

row,Variant,self-cleavage
1,G3C G30C,0.0279
2,G3C C12U,0.0982
3,G3C C12A,0.0611
4,G3C A59G,0.0736
5,G3C A59C,0.0244
6,G3C U67A,0.239
7,G3C U67G,0.219
8,G3C C32A,0.0311
9,G2U G19A,0.0693
10,G2U G19U,0.0651
11,G2U G19C,0.0206
12,G3A U55C,0.187
13,G3A U55G,0.291
14,G3U,0.195
15,G3A,0.693
16,G3C,0.147
17,G3A U61A,0.269
18,G3A U61C,0.246
19,G3A U20A,0.0708
20,G3C C39U,0.0426
21,G3C C39G,0.0769
22,G3A C54A,0.243
23,G3A C54U,0.602
24,G3A C54G,0.25

row,Variant,self-cleavage
1,G2U U21A,0.0838
2,G2U U21G,0.0462
3,G3A G19A,0.105
4,G3A G19C,0.0671
5,G3A G19U,0.092
6,G2U G58U,0.0822
7,G2U G58C,0.0697
8,G2U G58A,0.0612
9,G3A G56A,0.26
10,G3A G56U,0.467
11,G3C G4A,0.0691
12,G3C G4C,0.137
13,G3C G4U,0.0461
14,G3C U62C,0.0572
15,G3C U62G,0.0946
16,G3C U38G,0.0344
17,G3C U38A,0.1
18,G3C G17U,0.0348
19,G3C G17A,0.0395
20,G3C G17C,0.0303
21,G3C U44G,0.054
22,G3C U44A,0.0725
23,G3A U46G,0.688
24,G3A U62G,0.392

row,Variant,self-cleavage
1,G3A U62A,0.312
2,G3A U62C,0.357
3,G3C A23G,0.0477
4,G3C A23C,0.0635
5,G3A A16C,0.0704
6,G3A A16U,0.185
7,G2U U69G,0.109
8,G2U U26G,0.0848
9,G3C G47U,0.0876
10,G3C G47C,0.136
11,G3C G47A,0.264
12,G3C G14A,0.0364
13,G3C G14U,0.0909
14,G3C G14C,0.0467
15,G3C C45A,0.0668
16,G3C C45U,0.121
17,G3C U55G,0.0373
18,G3C U55A,0.0482
19,G3C U55C,0.0498
20,G3C G28A,0.0239
21,G3C G28C,0.0181
22,G3C A16C,0.0367
23,G3C A16U,0.0415
24,G3C A16G,0.162

row,Variant,self-cleavage
1,G2U G50C,0.0712
2,G2U G50U,0.0728
3,G3C U49G,0.039
4,G3C U49C,0.149
5,G3A G65A,0.527
6,G3A G65U,0.285
7,G3A C34G,0.256
8,G3A C34A,0.516
9,G3A U38G,0.113
10,G2U U64A,0.0856
11,G2U G56U,0.0789
12,G2U G56C,0.0334
13,G2U G56A,0.0814
14,G3A G50A,0.645
15,G3C A52C,0.0723
16,G3C A52U,0.075
17,G3C A52G,0.0775
18,G3A G37A,0.143
19,G3A G37U,0.0837
20,G3A A13G,0.596
21,G3A A13U,0.339
22,G3A G58U,0.701
23,G3C U36A,0.0318
24,G3C U36C,0.0612

row,Variant,self-cleavage
1,G3C U36G,0.329
2,G3A G68U,0.86
3,G3A G68A,0.852
4,G3A G68C,0.764
5,G3C A10G,0.215
6,G3C A10C,0.175
7,G3C G37A,0.0325
8,G3C G37U,0.0466
9,G3C G37C,0.0266
10,G3A C66A,0.442
11,G3A C66G,0.597
12,G3A C66U,0.724
13,G3C U20A,0.0845
14,G3C U20G,0.0823
15,G3C G11U,0.11
16,G3C G11C,0.0692
17,G3C G11A,0.0327
18,G3C G25U,0.047
19,G3C G25C,0.0602
20,G3C G25A,0.0214
21,G2U G41A,0.0653
22,G3A G25U,0.054
23,G2U G65U,0.0743
24,G2U G65C,0.0564

row,Variant,self-cleavage
1,G3C C18A,0.058
2,G3C C18U,0.0442
3,G3C C18G,0.0441
4,G3C A13C,0.0417
5,G3C A13U,0.0542
6,G3C U43A,0.0425
7,G3C U43G,0.104
8,G3C G19A,0.0368
9,G3C G19C,0.0344
10,G2U U61C,0.0727
11,G3C G68C,0.432
12,G3C G68A,0.4
13,G3A G31A,0.224
14,G3A G31C,0.122
15,G3C C9A,0.511
16,G3C C9G,0.166
17,G2U G37A,0.0373
18,G2U G37U,0.0465
19,G2U G47C,0.0826
20,G2U G47U,0.059
21,G3U A8U,0.121
22,G3U A8C,0.146
23,G3U A8G,0.0722
24,G3C G56U,0.033

row,Variant,self-cleavage
1,G3A U69G,0.793
2,G3A U69A,0.847
3,G3A C33U,0.231
4,G3A C33G,0.153
5,G3C C34G,0.783
6,G3C C6G,0.0449
7,G3C C6U,0.0391
8,G2U U53G,0.0896
9,G2U U53C,0.0669
10,G2U U53A,0.0959
11,G2U U44A,0.0745
12,G2U U44C,0.067
13,G2U U44G,0.0788
14,G3C G50A,0.0909
15,G3A C18U,0.349
16,G3U A10C,0.332
17,G3U A10U,0.424
18,G3A C9A,0.895
19,G3A C9G,0.858
20,G3A C29U,0.145
21,G3A C29A,0.149
22,G3A C29G,0.122
23,G2U G68A,0.128
24,G2U G68C,0.1

row,Variant,self-cleavage
1,G2U G68U,0.106
2,G3C G65U,0.0451
3,G3C G65C,0.0156
4,G3C U61G,0.0927
5,G3A A51C,0.413
6,G3A A51U,0.651
7,G3C G58A,0.0258
8,G3C G58U,0.216
9,G3C U26G,0.0558
10,G3C U26C,0.0733
11,G2U G25A,0.0393
12,G2U G25C,0.0157
13,G2U G25U,0.0175
14,G2U U20G,0.0171
15,G2U U20C,0.0329
16,G3C C22G,0.0359
17,G3C C22U,0.0738
18,G3C C22A,0.0184
19,G3C C7U,0.102
20,G3C C7A,0.026
21,G3C C7G,0.0644
22,G3C A42U,0.0888
23,G3C A42C,0.0214
24,G3C U53G,0.0664

row,Variant,self-cleavage
1,G3C U53C,0.0464
2,G3C G48C,0.105
3,G3C G48U,0.16
4,G3A U67G,0.818
5,G3A U67C,0.819
6,G3C C27G,0.06
7,G3C C27U,0.0443
8,G2U G30U,0.0322
9,G3A C12G,0.326
10,G3A C12U,0.723
11,G3A C12A,0.324
12,G3A A23G,0.401
13,G3A A23C,0.525
14,G3C A8U,0.123
15,G3C A8G,0.0364
16,G3C A8C,0.0756
17,G3A U26G,0.29
18,G3A U26A,0.187
19,G3A A60U,0.123
20,G3A U49G,0.392
21,G3A U49A,0.627
22,G3C C33A,0.0485
23,G3C C33U,0.0583
24,G3A G28C,0.0675

row,Variant,self-cleavage
1,G3A G28U,0.104
2,G3A G28A,0.113
3,G3C C35U,0.0352
4,G3C A51G,0.0762
5,G3C A51C,0.0422
6,G2U U67C,0.107
7,G2U U67G,0.116
8,G2U U67A,0.127
9,G3A A10C,0.876
10,G3A A10G,0.679
11,G3A A10U,0.889
12,G2U U62G,0.0547
13,G3C U21G,0
14,G3C U21C,0.058
15,G3C U21A,0.072
16,G3A C63A,0.331
17,G3A C63G,0.317
18,G3A G47U,0.682
19,G3A G47C,0.658
20,G3A U21C,0.371
21,G3A U21A,0.455
22,G3A U21G,0.129

# Source: the RNAGym collection of RNA variant scans (doi:10.7554/elife.80360)
